Publication PMC8058416, “Coordinated and High-Level Expression of Biosynthetic Pathway Genes Is Responsible for the Production of a Major Floral Scent Compound Methyl Benzoate in Hedychium coronarium” (Frontiers in Plant Science, 2021)

B1: HcBSMT1 (Hedychium coronarium) (protein)
chain: MLPNTTIMEGEMSLKVEHALHMVGGTGETSYVANSRLQEKAIHQTKSLLAIAVEETYKALHSDQMVVVDLGCSSGPNTLLMLSHVLSVATKLPRRMELQFFLNDLPGNDFNCLFQSLEGFKKRLEGEIEGDLLVPYYVAGVAGSFYGRLFPRASVHLFHSSFCLMWLSQVPEGLKIEHGVPLNKGNIYWTETSLAKVEKAYQEQFQKDFSTFLKLRHTELNVGGRMVLVFVGRRKRTPGNGDFVHLYGLLGEALNSMVLEGIIQEEKVDTFNLPIYGASFEEVESVIHNEGVFDLDRAEIFESSWDPFDDSKDDIYAIPNYMRSGKNVANYIRAVVEPLIVHQFGTVILDDLFARYAHLVSKHLLKKKANHTILVFALKKKA
notes: full coding region in pET30a (EcoRI/NotI), E. coli Rosetta (DE3), Ni-NTA partially purified, His tag; 382 residues, 43 kDa predicted; Phe162, Val231, Tyr247
B2: HcBSMT2 (Hedychium coronarium) (protein)
chain: MGLKVEQALHMVGGSGETSYATNSRLQEKAIYRTKPVLATTIEEMYKGLLPEHMVVVDLGCSSGSNTFIVVSQVLDIIVELRRMMEMKKPLEVQFFLNDLPGNDFNYVFQSLDKFKNKVEEESKGELLVPYYVVGVAGSFYGRLFPCASVHFFHSSYCLMWLSQVPEELENDQGVSLNKGNIYWTETSSSQVEKAYREQYKKDFLTFLRSRYIELNIGGGMMLTFLGRRKRTPGHGDLCHLWRLLAEALNSMVLEEIIPEEKVSTFNLPIYGPSLEEVKSIIHHEGLFDLDRVEIFESSWDPFDDSGDDSFDLSNYTKSAKNVADCIRAVVEPLIVHQFGDVILDDLFTRYAQNVLKHLLKEKANHTILVIALKKRV
notes: full coding region in pET30a (EcoRI/NotI), E. coli Rosetta (DE3), Ni-NTA partially purified, His tag; 377 residues, 43 kDa predicted; Tyr157, Leu226, Trp242

What was measured:
[1] = substrate: O=C(O)c1ccccc1; test: GC-MS (SPME) of methyl benzoate formed, Michaelis-Menten fit; type: biochemical, Hedychium coronarium; settings: SAM co-substrate (2 mM in standard assay), 100 mM KCl
[2] = substrate: O=C(O)c1ccccc1O; test: GC-MS (SPME) of methyl salicylate formed, Michaelis-Menten fit; type: biochemical, Hedychium coronarium; settings: SAM co-substrate (2 mM in standard assay), 100 mM KCl; optimal reaction condition

Protein | Km ([1]; optimal condition (25 °C, optimum pH 6.0)) | Km [2] | Km ([1]; optimal condition (25 °C, optimum pH 6.5))
B1 | 1456.17 ± 163.13 µM | – | –
B2 | – | 26.73 ± 3.88 µM | 87.73 ± 7.03 µM
